{"source": "patent US12508302B2", "about": "“Pharmaceutical composition providing mucolytic effect” (FRIMLINE PRIVATE LIMITED, priority 2022, dated 2025)", "molecules": {"B1": {"name": "Lactoferrin (protein, UniProt P02788 20-710, looked up)", "Lactotransferrin": "GRRRSVQWCAVSQPEATKCFQWQRNMRKVRGPPVSCIKRDSPIQCIQAIAENRADAVTLDGGFIYEAGLAPYKLRPVAAEVYGTERQPRTHYYAVAVVKKGGSFQLNELQGLKSCHTGLRRTAGWNVPIGTLRPFLNWTGPPEPIEAAVARFFSASCVPGADKGQFPNLCRLCAGTGENKCAFSSQEPYFSYSGAFKCLRDGAGDVAFIRESTVFEDLSDEAERDEYELLCPDNTRKPVDKFKDCHLARVPSHAVVARSVNGKEDAIWNLLRQAQEKFGKDKSPKFQLFGSPSGQKDLLFKDSAIGFSRVPPRIDSGLYLGSGYFTAIQNLRKSEEEVAARRARVVWCAVGEQELRKCNQWSGLSEGSVTCSSASTTEDCIALVLKGEADAMSLDGGYVYTAGKCGLVPVLAENYKSQQSSDPDPNCVDRPVEGYLAVAVVRRSDTSLTWNSVKGKKSCHTAVDRTAGWNIPMGLLFNQTGSCKFDEYFSQSCAPGSDPRSNLCALCIGDEQGENKCVPNSNERYYGYTGAFRCLAENAGDVAFVKDVTVLQNTDGNNNEAWAKDLKLADFALLCLDGKRKPVTEARSCHLAMAPNHAVVSRMDKVERLKQVLLHQQAKFGRNGSDCPDKFCLFQSETKNLLFNDNTECLARLHGKTTYEKYLGPQYVAGITNLKKCSTSPLLEACEFLRK", "notes": "multifunctional globular glycoprotein of the transferrin family, molecular mass about 80 kDa"}}, "test_system": "tracheobronchial secretion in rats", "experiment": "Mucolytic activity in rats: tracheobronchial secretion of fluorescein sodium (FINa)", "format": "in vivo, rat (Swiss Albino Rats)", "settings": "for Percentage (%) Enhancement of FINa secretion compared to Normal: versus normal group (G1)", "protocol": "The effect of the compositions of the present invention was studied in animals. For this study, screening effect of synergistic combination of compositions/formulations comprising N-Acetyl-L-Cysteine, Lactoferrin and additional active ingredients for mucolytic activity in rat was performed. The following trials were carried out:\nEighty-Four (84) rats including male and female (Swiss Albino Rats) divided into 14 groups (6 per group) were maintained in animal house in a light/dark atmosphere based on a 12 hour cycle having temperature and relative humidity in the range of 19 to 25±2° C. and 30-70%, respectively. To maintain the appropriate conditions, temperature and relative humidity were recorded three times daily. All animals were acclimatized for a minimum period of five days. Animals were maintained in the test setup for minimum 30 minutes once during the acclimatization period to reduce the stress. Animals were weighed on the day of receipt and observed daily for abnormalities if any. Detailed records of acclimatization were also maintained. Rats were housed 3 per cage in clean, sterilized Polypropylene cages. During complete experiments, animals were supplied with the standard certified rat pellet feed and drinking water treated by reverse osmosis ad libitum.\nIn order to evaluate the mucolytic activity in rats, eighty-four (84) rats were screened and divided into Fourteen (14) groups. For a comparative analysis, groups were divided and treated as below:\nTracheobronchial secretion in rats, expressed by the amount of fluorescein sodium (FINa) dye excreted into the respiratory tract, was measured by modification of methods published earlier.\nLactoferrin, Carotenoid, N-Acetyl-L-Cysteine or their combinations (G4-G14) were suspended in 1% Acacia. […]\nThe tracheobronchial lavage fluid (4.9±0.1 ml) was centrifuged (3500 rpm for 10 minutes) and the supernatant was transferred to STP B & L tubes. The fluorescence intensity of the supernatant was measured with a Genesys 20 spectrophotometer set at a wavelength of 510 nm (emission)."}
{"molecule": "B1", "values": [{"measurement": "Fluorescein Sodium (FINa) Secretion", "setting": "dosed 30 minutes before i.v. FINa 300 mg/kg, tracheobronchial lavage one hour after administration, doses as Table 1, mean±SEM", "result": "1.79 ± 0.04", "unit": "μg/100 g/h"}, {"measurement": "Percentage (%) Enhancement of FINa secretion compared to Normal", "setting": "doses as Table 1", "result": "25.17 ± 1", "unit": "%"}, {"measurement": "Percentage (%) Enhancement of FINa secretion compared to Normal", "setting": "doses as Table 1, listed as Lactoferrin", "result": 25.17, "unit": "%"}]}
